The results in this text go back to the supplement of paper PMC11246515.

The data set in a line: total protein half-life in vivo (active degradation + dilution); higher = more stable protein.
[1] abbreviates: E. coli NCM3722 delta-clpP delta-lon delta-hslV, growth: N-lim chemostat, doubling time 6 h.
Where [2] appears, read: E. coli NCM3722 delta-clpP, growth: N-lim chemostat, doubling time 6 h.
Where [3] appears, read: E. coli NCM3722 delta-hslV, growth: N-lim chemostat, doubling time 6 h.
Setting [4] is: E. coli NCM3722 delta-lon, growth: N-lim chemostat, doubling time 6 h.
[5] abbreviates: E. coli NCM3722 delta-smpB, growth: N-lim chemostat, doubling time 6 h.
Setting [6] is: wild type E. coli NCM3722, growth: C-lim chemostat, doubling time 3 h.
The mark [7] stands for this setting: wild type E. coli NCM3722, growth: C-lim chemostat, doubling time 6 h.
[8] abbreviates: wild type E. coli NCM3722, growth: C-lim chemostat, doubling time 12 h.
[9] abbreviates: wild type E. coli NCM3722, growth: N-lim chemostat, doubling time 6 h.
Where [10] appears, read: wild type E. coli NCM3722, growth: N-lim chemostat, doubling time 12 h.
Setting [11] is: wild type E. coli NCM3722, growth: P-lim chemostat, doubling time 6 h.
The mark [12] stands for this setting: wild type E. coli NCM3722, growth: P-lim chemostat, doubling time 12 h.

± gives the standard deviation of the averaged measurements.

“MTVTRPRAERGAFPPGTEHYGRSLLGAPLIWFPAPAASRESGLILAGTHGDENSSVVTLSCALRTLTPSLRRHHVVLCVNPDGCQLGLRANANGVDLNRNFPAANWKEGETVYRWNSAAEERDVVLLTGDKPGSEPETQALCQLIHRIQPAWVVSFHDPLACIEDPRHSELGEWLAQAFELPLVTSVGYETPGSFGSWCADLNLHCITAEFPPISSDEASEKYLFAMANLLRWHPKDAIRPS [P0ACV6]”: the “total protein half-life in vivo” value under setting [1] was found to be 4.35 ± 0.052 h; the “total protein half-life in vivo” value under setting [2] is 4.17 ± 0.28 h; the “total protein half-life in vivo” value under setting [3] was 3.78 ± 0.16 h; the “total protein half-life in vivo” value under setting [4] is 4.19 ± 0.46 h; the “total protein half-life in vivo” value under setting [5] was found to be 3.94 ± 0.21 h; the “total protein half-life in vivo” value under setting [6] amounted to 3.03 ± 0.27 h. Further, the “total protein half-life in vivo” value by setting is: under setting [7], 4.71 ± 0.84 h; under setting [8], 9.23 ± 0.26 h; under setting [9], 3.66 ± 0.29 h; under setting [10], 6.85 ± 0.2 h; under setting [11], 4.71 ± 0.42 h; under setting [12], 10.7 ± 0.85 h.

Turning to “MATDSTQCVKKSRGRPKVFDRDAALDKAMKLFWQHGYEATSLADLVEATGAKAPTLYAEFTNKEGLFRAVLDRYIDRFAAKHEAQLFCEEKSVESALADYFAAIANCFTSKDTPAGCFMINNCTTLSPDSGDIANTLKSRHAMQERTLQQFLCQRQARGEIPPHCDVTHLAEFLNCIIQGMSISAREGASLEKLMQIAGTTLRLWPELVK”, the “total protein half-life in vivo” value reads like this: under setting [1], 5.38 ± 0.14 h; under setting [2], 3.65 ± 0.34 h; under setting [3], 1.46 ± 0.015 h; under setting [4], 2.04 ± 0.17 h; under setting [5], 1.57 ± 0.097 h; under setting [6], 1.69 ± 0.081 h. The “total protein half-life in vivo” value by setting is: under setting [7], 2.99 ± 0.34 h; under setting [8], 4.6 ± 0.59 h; under setting [9], 1.78 ± 0.021 h; under setting [10], 2.32 ± 0.54 h; under setting [11], 2.49 ± 0.15 h; under setting [12], 3.73 ± 1.1 h.

As for “MEIREGHNKFYINDKQGKQIAEIVFVPTGENLAIIEHTDVDESLKGQGIGKQLVAKVVEKMRREKRKIIPLCPFAKHEFDKTREYDDIRS”, the “total protein half-life in vivo” value under setting [10] is above 16 h and the “total protein half-life in vivo” value under setting [12] was 12 h.

For the sequence “MSELNDLLTTRELQRWRLILGEAAETTLCGLDDNARQIDHALEWLYGRDPERLQRGERSGGLGGSNLTTPEWINSIHTLFPQQVIERLESDAVLRYGIEDVVTNLDVLERMQPSESLLRAVLHTKHLMNPEVLAAARRIVCQVVEEIMARLAKEVRQAFSGVRDRRRRSFIPLARNFDFKSTLRANLQHWHPQHGKLYIESPRFNSRIKRQSEQWQLVLLVDQSGSMVDSVIHSAVMAACLWQLPGIRTHLVAFDTSVVDLTADVADPVELLMKVQLGGGTNIASAVEYGRQLIEQPAKSVIILVSDFYEGGSSSLLTHQVKKCVQSGIKVLGLAALDSTATPCYDRDTAQALVNVGAQIAAMTPGELASWLAENLQS”, the “total protein half-life in vivo” value under setting [8] stood at 12.9 h, the “total protein half-life in vivo” value under setting [10] was determined as 8.61 h and the “total protein half-life in vivo” value under setting [11] came out at 6.39 h.

As to “MIDDDGYRPNVGIVICNRQGQVMWARRFGQHSWQFPQGGINPGESAEQAMYRELFEEVGLSRKDVRILASTRNWLRYKLPKRLVRWDTKPVCIGQKQKWFLLQLVSGDAEINMQTSSTPEFDGWRWVSYWYPVRQVVSFKRDVYRRVMKEFASVVMSLQENTPKPQNASAYRRKRG [P0A776]”, the “total protein half-life in vivo” value runs as follows: under setting [1], 5.67 ± 0.079 h; under setting [2], 5.62 ± 0.48 h; under setting [3], 6.81 ± 1.3 h; under setting [4], 6.4 ± 0.12 h; under setting [5], 5.02 ± 0.73 h; under setting [7], 5.48 ± 0.44 h. The “total protein half-life in vivo” value reads like this: under setting [8], 9.01 ± 3.2 h; under setting [9], 4.84 ± 0.076 h; under setting [10], 11.9 ± 3.9 h; under setting [12], 9.25 ± 0.6 h.

For “MRFYRPLGRISALTFDLDDTLYDNRPVILRTEREALTFVQNYHPALRSFQNEDLQRLRQAVREAEPEIYHDVTRWRFRSIEQAMLDAGLSAEEASAGAHAAMINFAKWRSRIDVPQQTHDTLKQLAKKWPLVAITNGNAQPELFGLGDYFEFVLRAGPHGRSKPFSDMYFLAAEKLNVPIGEILHVGDDLTTDVGGAIRSGMQACWIRPENGDLMQTWDSRLLPHLEISRLASLTSLI [P0ADP0]”, the “total protein half-life in vivo” value is, setting by setting: under setting [1], 5.24 ± 0.7 h; under setting [2], 4.56 ± 0.69 h; under setting [3], 3.79 ± 0.05 h; under setting [4], 4.87 ± 0.35 h; under setting [5], 3.76 ± 0.16 h; under setting [7], 5.75 ± 0.33 h. Moreover, the “total protein half-life in vivo” value runs as follows: under setting [8], 10.1 ± 1.4 h; under setting [9], 3.83 ± 0.34 h; under setting [10], 6.7 h; under setting [11], 5.87 ± 0.57 h; under setting [12], 11.6 ± 0.078 h.

“MTIKNKMLLGALLLVTSAAWAAPATAGSTNTSGISKYELSSFIADFKHFKPGDTVPEMYRTDEYNIKQWQLRNLPAPDAGTHWTYMGGAYVLISDTDGKIIKAYDGEIFYHR”: the “total protein half-life in vivo” value runs as follows: under setting [1], 5.04 ± 0.4 h; under setting [2], 5.973 ± 0.043 h; under setting [3], 6.26 ± 0.2 h; under setting [4], 5.84 ± 0.39 h; under setting [5], 6.59 ± 0.59 h; under setting [6], 3.09 ± 0.24 h. The “total protein half-life in vivo” value under setting [7] was determined as 5.37 ± 0.16 h; the “total protein half-life in vivo” value under setting [8] came out at 8.3 ± 1.4 h; the “total protein half-life in vivo” value under setting [9] was 6.03 ± 0.036 h; the “total protein half-life in vivo” value under setting [10] was 11.5 ± 0.32 h; the “total protein half-life in vivo” value under setting [11] was 5.446 ± 0.049 h; the “total protein half-life in vivo” value under setting [12] turned out to be 13.4 ± 2.4 h.

“MKTGMFTCGHQRLPIEHAFRDASELGYDGIEIWGGRPHAFAPDLKAGGIKQIKALAQTYQMPIIGYTPETNGYPYNMMLGDEHMRRESLDMIKLAMDMAKEMNAGYTLISAAHAGYLTPPNVIWGRLAENLSELCEYAENIGMDLILEPLTPYESNVVCNANDVLHALALVPSPRLFSMVDICAPYVQAEPVMSYFDKLGDKLRHLHIVDSDGASDTHYIPGEGKMPLRELMRDIIERGYEGYCTVELVTMYMNEPRLYARQALERFRALLPEDER”: the “total protein half-life in vivo” value under setting [1] turned out to be 7.09 h, the “total protein half-life in vivo” value under setting [6] was above 4 h and the “total protein half-life in vivo” value under setting [8] came out at 6.86 h.
